{"source": "paper PMC4419837", "about": "“Purification and characterization of DR_2577 (SlpA) a major S-layer protein from Deinococcus radiodurans” (Frontiers in Microbiology, 2015)", "key": {"[1]": {"target": "the molecule itself", "experiment": "native gel or EMSA; BN-PAGE, 3-12% gradient gel, 205 V for 5 h at 4°C, about 0.1 ug protein from the main SEC peak; mass estimated against NativeMARK; hexamer"}, "[2]": {"target": "the molecule itself", "experiment": "SDS-PAGE; standard denaturation: Rotiload, not boiled and not treated with tris-2-carboxy-ethylphosphine; polyacrylamide/urea gel; mass estimated against prestained standard; dimer"}}, "note": "“And” between values parts separate entries of the source, which are not always exact repeats. Identical values can stand only once."}
{"protein": "DR_2577 (SlpA), major S-layer protein from Deinococcus radiodurans (natural protein, UniProt Q9RRB6 23-1167, looked up, DR_2577 (SlpA), S-layer protein of Deinococcus radiodurans R1; cysteines at residues 896 and 929; Native protein isolated from the bacterium; It infers that the dimers are held by an intermolecular disulfide bond, and only a computer prediction assigns that bond to Cys929) APVSAPQVPALTDVPAGHWAKDAIDRLVSRGVILGYPDGTFRGTQNLTRYEAAIIIARLLDQMRDGETPAGMTAEDMTALQNAIQELAADLAALGVRVSDLEANAVSKDDFARLEARIEEVAAAGGEQGATEALQGQIDDLTARVDEYDALRADVDDNASSIAALNDLTVLLNQDILDLQDRVSAVEAAQADFVQRSDFDALGGRVTTVETRVETVNNSLTGRIAALERNAFSVKPSLTIGYSVSRTSRNFDVDRLFPLNADGTVANNAFTSGGIDTDTGAQRRDFGDFGNASDPVVAGAAGLYGFADGVSYTVYFTDGSTATFDGLNPADYKVPTGKVIDTTKGRNGFGFNNLARYKEGSTDIGISLGFDTSGQFSQVTSGTGGSLFSTAGRLQVNQIDLNFGLVTGLPSDAYVDTNGNGKKDDGEATGRGTYLGSGGTAAILRDPAGNVYRPVFFRFKNATTQFSVGNNPVIVTLGQQQKFYFSDYVFDNNYDGRGDGFTVTVDGSNVPVIGAWKPQIKGVYGSRSGLDGTAEAGYGVYYRGVRAQITPVGTLTAGIHYAQEGRDMFGAAQNTTSTPSDVTTYGADLHGKAFGVELHSEYATSRVRPNTANAAVQTSNAFYARVATRKDNLAFDLNTPAAKFGNDTFGVSLYDLNYRKIDAGYNNVAGISEYGYGSYSRTSAQNIAYNPDTGVTAPFANLDRQAYTDANNDGTSDRNADGTVVATNTKIGQMGFGVKAAANLGPVAIGGYYDTSTGANGDNANRMTEAGGSAKVAYSIFSLRGTYNTLDSNRPQIYRDAAGTQIIGDAKVRRYAVQADVTPGLGLFVGAYYRDVNVNGVRSTTDRGLLGRGYLASSFEPGVGNNAYRTGLRCADNNFGTGTRDIDGVGGVLNPAVNLDQSRTATCFTSYGVEAGHAGDNANALVKDLFFRVGYSRVYVPTTATATTGDFSGSVTYGDARYDRKVGVANVRLAGSFSTTNTQLDSRPAGTRGAVGLIVRTDPLENVPFRPQFNGQVGYYTADNRVAAGNYNANATKYGAGVVLNDFLLPQTKIGVRYDGYMAQNRQYTPFDGDGTQGYFSDANNNRRTNLNGVYVEGAYQDLIFSYGTYTLSQKDLNGVEYGSGINNGQPARGQTFKISYKVNF", "values": [{"measurement": "stoichiometry N", "setting": "[1]", "value": "6.22 and 5.95"}, {"measurement": "stoichiometry N", "setting": "[2]", "value": "2.25 and 2.17"}]}
